The text below walks through data of article PMC9486808.

Read-outs that look alike come from different tables or passages of the source.

What all share (experiment): fluorescence polarisation
The target of test [1] is L2-FAM: Cyclo(Ac-…)LFAApa[…]-NH2.
For test [2], the target named is L4-FAM: Cyclo(Ac-…)pa[…]-NH2.
Test [3] concerns the target S3-FAM: Cyclo(Ac-y…)pa[…]-NH2.
For test [4], the target named is S5-FAM: Cyclo(Ac-y…)pa[…]-NH2.
For test [5], the target named is L4-FAM: Cyclo(Ac-…)pa[…]-NH2. The source holds these as a separate data set.
In test [6] the target is S3-FAM: Cyclo(Ac-y…)pa[…]-NH2. The source holds these as a separate data set.
Test [7] concerns the target S5-FAM: Cyclo(Ac-y…)pa[…]-NH2. The source holds these as a separate data set.

As to “Recombinant soluble trimeric H1 HA ectodomain of A/California/04/2009 (H1N1), fused to GCN4 trimeriz (domain or fragment)”, the Kd in test [1] amounted to 2.4 nM; in test [2], 1.1 nM; in test [3], 1.3 nM; in test [4], 1 nM; in test [5] it was 0.6 nM; in test [6] it was 0.8 nM. The substance also showed a Kd in test [7] of 0.6 nM.
